Substitutions are numbered along the chain they refer to. In names and notes the source's numbering stands. Where no end group is shown, it is not given here. [ ]: non-standard residue; d: D form. pT = C[C@@H](OP(=O)(O)O)[C@H](N)C(=O)O
B1: T1010A: NCAPG2 mutant which substituted threonine with alanine at the residue number 1010 of SEQ ID NO: 7 (protein, listed as Homo sapiens)
chain: MEKRETFVQAVSKELVGEFLQFVQLDKEASDPFSLNELLDELSRKQKEELWQRLKNLLTDVLLESPVDGWQVVEAQGEDNMETEHGSKMRKSIEIIYAITSVILASVSVINESENYEALLECVIILNGILYALPESERKLQSSIQDLCVTWWEKGLPAKEDTGKTAFVMLLRRSLETKTGADVCRLWRIHQALYCFDYDLEESGEIKDMLLECFININYIKKEEGRRFLSCLFNWNINFIKMIHGTIKNQLQGLQKSLMVYIAEIYFRAWKKASGKILEAIENDCIQDFMFHGIHLPRRSPVHSKVREVLSYFHHQKKVRQGVEEMLYRLYKPILWRGLKARNSEVRSNAALLFVEAFPIRDPNLHAIEMDSEIQKQFEELYSLLEDPYPMVRSTGILGVCKITSKYWEMMPPTILIDLLKKVTGELAFDTSSADVRCSVFKCLPMILDNKLSHPLLEQLLPALRYSLHDNSEKVRVAFVDMLLKIKAVRAAKFWKICPMEHILVRLETDSRPVSRRLVSLIFNSFLPVNQPEEVWCERCVTLVQMNHAAARRFYQYAHEHTACTNIAKLIHVIRHCLNACIQRAVREPPEDEEEEDGREKENVTVLDKTLSVNDVACMAGLLEIIVILWKSIDRSMENNKEAKLYTINKFASVLPEYLKVFKDDRCKIPLFMLMSFMPASAVPPFSCGVISTLRSREEGAVDKSYCTLLDCLCSWGQVGHILELVDNWLPTEHAQAKSNTASKGRVQIHDTRPVKPELALVYIEYLLTHPKNRECLLSAPRKKLNHLLKALETSKADLESLLQTPGGKPRGFSEAAAPRAFGLHCRLSIHLQHKFCSEGKVYLSMLEDTGFWLESKILSFIQDQEEDYLKLHRVIYQQIIQTYLTVCKDVVMVGLGDHQFQMQLLQRSLGIMQTVKGFFYVSLLLDILKEITGSSLIQKTDSDEEVAMLLDTVQKVFQKMLECIARSFRKQPEEGLRLLYSVQRPLHEFITAVQSRHTDTPVHRGVLSALIAGPVVEISHQLRKVSDVEELTPPEHLSDLPPFSRCLIGIIIKSSNVVRSFLDELKACVASNDIEGIVCLTAAVHIILVINAGKHKSSKVREVAATVHRKLKTFMEITLEEDSIERFLYESSSRTLGELLNS
B2: T805A: NCAPG2 mutant which substituted threonine with alanine at the residue number 805 of SEQ ID NO: 7 (protein, listed as Homo sapiens)
chain: B1 chain with T805A, A1010T

Experiments:
human PLK1-PBD (371-594) = molecular target: T1, human PLK1-PBD (371-594) (Homo sapiens, UniProt P53350); assay: Fluorescence polarisation binding assay for the PBD of PLK1; conditions: FITC-labelled peptide 10 nM, protein 0 to 4 μM
T1 construct: The human PLK1-PBD (371-594) was amplified by PCR; GST (N, cleaved yes); made in house; host or cells: E. coli Rosetta2(DE3)pLysS
Experimental: The human PLK1-PBD (371-594) was amplified by PCR and cloned into the pGEX6p-1 vector using the EcoRI and XhoI restriction enzyme sites. The protein was overexpressed in E. coli Rosetta2(DE3)pLysS cells (Novagen). The cells were grown at 37° C. in 3 L of Terrific Broth medium to an OD600 of 0.6, and recombinant protein expression was induced with 0.1 mM isopropyl β-D-thiogalactopyranoside (IPTG) at 20° C. The cells were further grown at 20° C. for 20 hr after IPTG induction. The purification methods were similar to methods that have been previously reported (Cheng, K. Y., et al. The crystal structure of the human polo-like kinase-1 polo box domain and its phospho-peptide complex. EMBO J 22, 5757-68 (2003)). Briefly, the cell pellet was resuspended in ice-cold HBS buffer (10 mM HEPES pH 7.5, 200 mM NaCl, 3.4 mM EDTA, 0.01% (v/v) 1-thioglycerol) and homogenized by sonication. After sonication, the cell debris was centrifuged and supernatant was applied to GST Sepharose resin (GE Healthcare). After extensive washing with HBS buffer, protein was eluted with HBS buffer supplemented with 20 mM reduced glutathione. PreScission protease (GE Healthcare) was added to eluted protein in order to remove the fused GST and the cleavage product was diluted and re-passed through GST Sepharose column. The flow through was collected and applied to Superdex 75 prep grade column (GE Healthcare) equilibrated with HBS buffer. The purified protein was concentrated to 6 mg/ml and used for fluorescence polarization binding assay or crystal screening.
For the fluorescence polarisation binding assay, FITC-labelled 1010pT (GVLSpTLI) or 1010T (GVLSTLI) (SEQ ID NO: 8) peptide was mixed with purified PBD and incubated in a buffer containing 10 mM HEPES (pH7.5), 50 mM NaCl, 1 mM EDTA, 1 mM DTT, and 0.0025% (v/v) Tween 20. The final protein concentrations ranged from 0 to 4 μM, and the final peptide concentration was 10 nM. Fluorescence polarisation was analysed 30 min after mixing the peptide and proteins in a 96-well plate using a VERSAmax microplate reader (Molecular Devices). Binding curves were fitted using GraphPad Prism software (GraphPad Software).
The human PLK1-PBD (371-594), PLK2-PBD (451-685) and PLK3-PBD (412-646) genes were cloned into pGEX6p-1 vector using EcoRI/XhoI restriction sites. […] The purified PLK-PBD proteins were concentrated and used for the fluorescence polarization binding assay.
For the fluorescence polarization binding assay, each fluorescein isothiocyanate (FITC)-labeled 1010pT (GVLSpTLI), 1010T (GVLSTLI), 1010E (GVLSELI), or 1010D (GVLSDLI) peptide was mixed with purified PLK1, PLK2 or PLK3 and incubated in a buffer containing 10 mM HEPES (pH 7.5), 50 mM NaCl, 1 mM EDTA, 1 mM DTT and 0.0025% (v/v) Tween 20. […]

[1] = test system: HuR-7 human hepatoma cell; assay: Cell survival and nucleus morphology of hepatoma cells treated with FITC-tagged NCAPG2 peptides (Opera Phenix); assay type: cell-based; conditions: HuR-7, FITC-tagged peptide
Source text: FIG. 12 illustrates NCAPG2 p The1010 (VLSpTL) and NCAPG2 The1010 (VLSTL) peptide decreased cell survival and induced mitotic defect in HuR-7 human hepatoma cell. Cell survival and nucleus morphology were detected from Opera Phenix system (PerkinElmer).

PLK1 = molecular target: T2, PLK1 (Homo sapiens, UniProt P53350); assay: Pull down assay / immunoprecipitation of Flag-tagged NCAPG2 mutants with GST-tagged PLK1; assay type: binding
T2 construct: expressed in transfected cells
Source text: The NCAPG2 expression vectors were constructed using pcDNA3.1, pCMV-3FLAG-1, and pLL3.7 vectors with KpnI/XhoI, EcoRV/XhoI, and SmaI/XhoI restriction enzyme sites, respectively. To produce siRNA-resistant NCAPG2 mutants (Lenti-NCAPG2^R), the mutants (forward primer: 5′ GAAGACTACCTGAAGCTTCACAGA GTGATT TATCAGCAAATTATCCAGACCTACCTG-3′ (SEQ ID NO: 3), reverse primer: 5′-CAGGTAGGTCTGGATAATTTGCTGATAAATCACTCTGTGAAGCTTCAGGTAGTCTTCTTC-3′ (SEQ ID NO: 4)) were generated using a QuikChange Site-Directed Mutagenesis Kit (Stratagene). […]
For the detection of proteins using the immunoblottings, subjects were protein complexes from immunoprecipitation or whole cell lysates harvested from indicated conditions. […] Protein concentration was determined using BCA™ protein assay kit (Pierce, Rockford, USA). […] Protein expressions detected chemiluminescent signals activated by SuperSignal West Pico Chemiluminescent Substrate (Pierce Rockford, Ill., USA) reacted with horse radish peroxidase tagged secondary antibodies (Jackson ImmunoResearch Laboratories, Inc., West Grove, USA).

T1 sequence (P53350 371-594): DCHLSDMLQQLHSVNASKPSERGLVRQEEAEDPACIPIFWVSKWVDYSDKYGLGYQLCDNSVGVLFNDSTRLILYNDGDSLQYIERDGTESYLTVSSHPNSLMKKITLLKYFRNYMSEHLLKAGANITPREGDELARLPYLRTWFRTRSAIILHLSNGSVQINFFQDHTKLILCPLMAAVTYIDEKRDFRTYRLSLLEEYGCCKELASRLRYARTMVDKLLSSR
T2 sequence (P53350 whole entry): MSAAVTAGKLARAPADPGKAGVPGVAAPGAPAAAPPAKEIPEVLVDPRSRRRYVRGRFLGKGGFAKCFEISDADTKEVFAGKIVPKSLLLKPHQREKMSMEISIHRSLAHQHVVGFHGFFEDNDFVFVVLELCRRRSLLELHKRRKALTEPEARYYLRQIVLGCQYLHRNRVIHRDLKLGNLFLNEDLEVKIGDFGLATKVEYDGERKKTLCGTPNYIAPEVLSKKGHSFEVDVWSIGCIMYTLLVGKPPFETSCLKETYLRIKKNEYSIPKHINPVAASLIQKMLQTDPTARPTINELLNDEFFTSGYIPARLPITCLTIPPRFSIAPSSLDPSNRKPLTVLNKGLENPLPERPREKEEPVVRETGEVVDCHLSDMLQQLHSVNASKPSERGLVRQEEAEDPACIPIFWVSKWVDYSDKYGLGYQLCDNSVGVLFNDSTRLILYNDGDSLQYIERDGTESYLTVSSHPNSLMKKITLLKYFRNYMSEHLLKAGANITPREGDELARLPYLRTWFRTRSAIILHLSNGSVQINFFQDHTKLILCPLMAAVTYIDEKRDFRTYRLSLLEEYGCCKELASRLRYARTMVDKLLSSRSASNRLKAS

Molecule | binding to PLK1-PBD (in words) (human PLK1-PBD (371-594)) | effect on mitosis [1] | survival rate of human liver cancer cell [1] | binding of NCAPG2 mutant to PLK1 (PLK1)
GVLSDLI [1010D, 7-mer peptide with aspartate as phosphor-Thr mimetic] | did not bind | – | – | –
GVLSELI [1010E, 7-mer peptide with glutamate as phosphor-Thr mimetic] | did not bind | – | – | –
VLSTL (listed as Homo sapiens) [NG2 The1010] | – | induced abnormal mitosis | lowered survival rate | –
VLSpTL (VLS[pT]L; listed as Homo sapiens) [NG2 p The1010, phosphorylated 5-mer NCAPG2 peptide comprising residue 1010] | – | induced abnormal mitosis | lowered survival rate | –
B1 | – | – | – | inhibited
B2 | – | – | – | inhibited
